T1: RADIL, Q96JH8
T1 sequence (Q96JH8 971-1071, limits assumed, looked up): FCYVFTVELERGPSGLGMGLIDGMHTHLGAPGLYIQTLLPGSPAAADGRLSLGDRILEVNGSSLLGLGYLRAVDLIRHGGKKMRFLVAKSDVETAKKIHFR

T2: DLG3_2, Q92796
T2 sequence (Q92796 221-321, limits assumed, looked up): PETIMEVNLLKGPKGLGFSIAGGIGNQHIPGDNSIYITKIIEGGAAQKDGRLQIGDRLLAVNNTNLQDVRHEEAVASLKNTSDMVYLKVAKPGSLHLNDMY

T3: SNTG2, Q9NY99
T3 sequence (Q9NY99 68-166, limits assumed, looked up): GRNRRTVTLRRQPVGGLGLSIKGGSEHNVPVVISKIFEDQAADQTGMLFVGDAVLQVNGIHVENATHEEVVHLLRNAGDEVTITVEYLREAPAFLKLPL

T4: DFNB31_1, Q9P202
T4 sequence (Q9P202 135-233, limits assumed, looked up): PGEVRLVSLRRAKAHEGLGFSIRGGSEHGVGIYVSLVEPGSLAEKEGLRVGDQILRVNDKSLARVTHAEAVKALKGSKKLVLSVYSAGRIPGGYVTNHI

T5: LIN7A, O14910
T5 sequence (O14910 103-200, limits assumed, looked up): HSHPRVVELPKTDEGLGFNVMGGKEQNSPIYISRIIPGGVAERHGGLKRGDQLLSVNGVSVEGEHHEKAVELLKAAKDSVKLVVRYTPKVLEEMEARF

T6: PTPN13_1, Q12923
T6 sequence (Q12923 1088-1188, limits assumed, looked up): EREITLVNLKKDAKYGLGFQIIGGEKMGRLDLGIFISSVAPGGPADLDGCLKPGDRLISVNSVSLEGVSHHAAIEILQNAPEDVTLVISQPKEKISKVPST

T7: DLG3_1, Q92796
T7 sequence (Q92796 125-227, limits assumed, looked up): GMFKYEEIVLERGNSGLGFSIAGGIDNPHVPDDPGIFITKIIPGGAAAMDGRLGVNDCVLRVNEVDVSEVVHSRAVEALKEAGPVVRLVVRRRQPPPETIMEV

T8: RHPN1, Q8TCX5
T8 sequence (Q8TCX5 508-602, limits assumed, looked up): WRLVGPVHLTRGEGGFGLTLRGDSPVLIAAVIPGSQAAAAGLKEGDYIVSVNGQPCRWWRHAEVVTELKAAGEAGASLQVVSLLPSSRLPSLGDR

T9: SNTG1, Q9NSN8
T9 sequence (Q9NSN8 52-150, limits assumed, looked up): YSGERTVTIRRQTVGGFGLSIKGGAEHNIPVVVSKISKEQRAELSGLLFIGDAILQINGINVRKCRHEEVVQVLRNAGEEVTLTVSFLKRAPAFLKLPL

T10: MPDZ_5, O75970
T10 sequence (O75970 695-796, limits assumed, looked up): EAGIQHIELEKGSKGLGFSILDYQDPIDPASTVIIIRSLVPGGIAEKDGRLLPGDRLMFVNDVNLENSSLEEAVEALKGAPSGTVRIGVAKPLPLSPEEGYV

T11: NHERF3_3, Q5T2W1
T11 sequence (Q5T2W1 238-333, limits assumed, looked up): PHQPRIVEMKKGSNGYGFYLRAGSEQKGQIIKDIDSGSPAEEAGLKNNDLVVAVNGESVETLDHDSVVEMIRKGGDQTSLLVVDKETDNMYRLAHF

B1: SCN4A, P35499 (peptide)
chain: VRPGVKESLV
B2: PKN2, Q16513 (peptide)
chain: RDFDYIADWC
B3: GOLT1A, Q6ZVE7 (peptide)
chain: RRLQGTSSMV

Each binder was assayed against T1, RADIL, Q96JH8 (assay: holdup assay). Conditions: plain residues with an end cap or a label only (N-terminal biotin on a linker: ado-ado).
Design: key: below the threshold = too weak to quantify, mostly under pKd 3.1 to 4
Work on B1 yielded a pKd of 4.22.
With B2 the pKd was 4.2.
Binder B3 has a pKd of 4.28.

The binders below were run against SCRIB_2, Q14160 (assay: holdup assay). Conditions: plain residues with an end cap or a label only (N-terminal biotin on a linker: ado-ado).
Sequence of SCRIB_2, Q14160 (Q14160 857-960): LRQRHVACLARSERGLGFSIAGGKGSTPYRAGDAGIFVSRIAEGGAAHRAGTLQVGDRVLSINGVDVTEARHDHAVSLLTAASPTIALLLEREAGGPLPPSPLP
Design: key: below the threshold = too weak to quantify, mostly under pKd 3.1 to 4
For B1, the pKd was 4.18.
B2 was tested, and the pKd was “below the threshold”.
B3 gave a pKd of 3.57.

What follows are binders tested against DLG1_3, Q12959 (assay: holdup assay). Conditions: plain residues with an end cap or a label only (N-terminal biotin on a linker: ado-ado).
Sequence of DLG1_3, Q12959 (Q12959 457-571): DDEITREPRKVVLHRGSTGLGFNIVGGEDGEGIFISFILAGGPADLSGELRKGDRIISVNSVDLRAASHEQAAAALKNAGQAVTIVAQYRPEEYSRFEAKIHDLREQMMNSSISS
Design: key: below the threshold = too weak to quantify, mostly under pKd 3.1 to 4
B1 showed a pKd of 3.97.
With B2 the pKd was “below the threshold”.
B3 gave a pKd of 3.58.

What follows are binders tested against MAGI2_4, Q86UL8 (assay: holdup assay). Conditions: plain residues with an end cap or a label only (N-terminal biotin on a linker: ado-ado).
Sequence of MAGI2_4, Q86UL8 (Q86UL8 772-865): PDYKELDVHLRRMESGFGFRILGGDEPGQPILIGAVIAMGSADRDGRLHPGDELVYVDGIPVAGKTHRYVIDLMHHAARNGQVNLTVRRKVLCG
Design: key: below the threshold = too weak to quantify, mostly under pKd 3.1 to 4
In the case of B1, the pKd is reported as 4.37.
Work on B2 yielded a pKd of 3.53.
B3 was tested, and the pKd was “below the threshold”.

These binders were tested against FRMPD2_2, Q68DX3 (assay: holdup assay). Conditions: plain residues with an end cap or a label only (N-terminal biotin on a linker: ado-ado).
Sequence of FRMPD2_2, Q68DX3 (Q68DX3 944-1038): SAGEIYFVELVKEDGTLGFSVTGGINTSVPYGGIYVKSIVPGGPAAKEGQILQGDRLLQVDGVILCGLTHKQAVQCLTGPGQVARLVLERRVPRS
Design: key: below the threshold = too weak to quantify, mostly under pKd 3.1 to 4
B1 gave a pKd of 3.91.
In the case of B2, the pKd is reported as “below the threshold”.
With B3 the pKd was “below the threshold”.

The binders below were run against T2, DLG3_2, Q92796 (assay: holdup assay). Conditions: plain residues with an end cap or a label only (N-terminal biotin on a linker: ado-ado).
Design: key: below the threshold = too weak to quantify, mostly under pKd 3.1 to 4
Work on B1 yielded a pKd of 5.
B2 was tested, and the pKd was 4.16.
B3 gave a pKd of 4.67.

What follows are binders tested against FRMPD2_3, Q68DX3 (assay: holdup assay). Conditions: plain residues with an end cap or a label only (N-terminal biotin on a linker: ado-ado).
Sequence of FRMPD2_3, Q68DX3 (Q68DX3 1073-1166): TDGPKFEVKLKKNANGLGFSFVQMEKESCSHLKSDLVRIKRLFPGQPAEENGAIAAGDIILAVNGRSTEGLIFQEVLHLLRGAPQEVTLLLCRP
Design: key: below the threshold = too weak to quantify, mostly under pKd 3.1 to 4
With B1 the pKd was “below the threshold”.
For B2, the pKd was “below the threshold”.
B3 was tested, and the pKd was “below the threshold”.

Each binder was assayed against TJP1_3, Q07157 (assay: holdup assay). Conditions: plain residues with an end cap or a label only (N-terminal biotin on a linker: ado-ado).
Sequence of TJP1_3, Q07157 (Q07157 416-512): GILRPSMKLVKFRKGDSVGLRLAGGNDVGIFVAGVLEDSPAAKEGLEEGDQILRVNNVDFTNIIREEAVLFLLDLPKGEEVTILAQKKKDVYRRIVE
Design: key: below the threshold = too weak to quantify, mostly under pKd 3.1 to 4
For B1, the pKd was “below the threshold”.
For B2, the pKd was 3.89.
For B3, the pKd was “below the threshold”.

Each binder was assayed against T3, SNTG2, Q9NY99 (assay: holdup assay). Conditions: plain residues with an end cap or a label only (N-terminal biotin on a linker: ado-ado).
Design: key: below the threshold = too weak to quantify, mostly under pKd 3.1 to 4
B1 was tested, and the pKd was 4.77.
B2 was tested, and the pKd was “below the threshold”.
For B3, the pKd was “below the threshold”.

Each binder was assayed against AHNAK1, Q09666 (assay: holdup assay). Conditions: plain residues with an end cap or a label only (N-terminal biotin on a linker: ado-ado).
Sequence of AHNAK1, Q09666 (Q09666 4-100): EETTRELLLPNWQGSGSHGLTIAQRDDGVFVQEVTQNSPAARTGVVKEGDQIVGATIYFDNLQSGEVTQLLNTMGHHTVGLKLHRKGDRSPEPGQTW
Design: key: below the threshold = too weak to quantify, mostly under pKd 3.1 to 4
With B1 the pKd was “below the threshold”.
With B2 the pKd was “below the threshold”.
B3 was tested, and the pKd was “below the threshold”.

The binders below were run against LNX1_2, Q8TBB1 (assay: holdup assay). Conditions: plain residues with an end cap or a label only (N-terminal biotin on a linker: ado-ado).
Sequence of LNX1_2, Q8TBB1 (Q8TBB1 371-470): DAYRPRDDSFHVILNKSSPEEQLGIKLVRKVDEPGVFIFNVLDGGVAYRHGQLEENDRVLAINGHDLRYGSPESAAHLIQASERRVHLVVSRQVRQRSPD
Design: key: below the threshold = too weak to quantify, mostly under pKd 3.1 to 4
B1 was tested, and the pKd was “below the threshold”.
Work on B2 yielded a pKd of 3.83.
B3 was tested, and the pKd was “below the threshold”.

The binders below were run against LIMK2, P53671 (assay: holdup assay). Conditions: plain residues with an end cap or a label only (N-terminal biotin on a linker: ado-ado).
Sequence of LIMK2, P53671 (P53671 143-248): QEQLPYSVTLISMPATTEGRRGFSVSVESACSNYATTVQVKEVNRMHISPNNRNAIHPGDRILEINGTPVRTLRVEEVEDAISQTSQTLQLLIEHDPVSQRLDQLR
Design: key: below the threshold = too weak to quantify, mostly under pKd 3.1 to 4
For B1, the pKd was “below the threshold”.
B2 was tested, and the pKd was “below the threshold”.
With B3 the pKd was “below the threshold”.

What follows are binders tested against T4, DFNB31_1, Q9P202 (assay: holdup assay). Conditions: plain residues with an end cap or a label only (N-terminal biotin on a linker: ado-ado).
Design: key: below the threshold = too weak to quantify, mostly under pKd 3.1 to 4
B1 showed a pKd of 3.73.
Binder B2 has a pKd of 3.69.
For B3, the pKd was “below the threshold”.

These binders were tested against T5, LIN7A, O14910 (assay: holdup assay). Conditions: plain residues with an end cap or a label only (N-terminal biotin on a linker: ado-ado).
Design: key: below the threshold = too weak to quantify, mostly under pKd 3.1 to 4
In the case of B1, the pKd is reported as 3.94.
For B2, the pKd was “below the threshold”.
For B3, the pKd was “below the threshold”.

Each binder was assayed against Inadl_3, Q8NI35 (assay: holdup assay). Conditions: plain residues with an end cap or a label only (N-terminal biotin on a linker: ado-ado).
Sequence of Inadl_3, Q8NI35 (Q8NI35 359-469): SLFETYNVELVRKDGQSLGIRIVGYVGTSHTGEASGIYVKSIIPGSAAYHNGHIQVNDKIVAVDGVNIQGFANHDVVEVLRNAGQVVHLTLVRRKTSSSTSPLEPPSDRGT
Design: key: below the threshold = too weak to quantify, mostly under pKd 3.1 to 4
With B1 the pKd was “below the threshold”.
Binder B2 has a pKd of 3.6.
For B3, the pKd was “below the threshold”.

Each binder was assayed against T6, PTPN13_1, Q12923 (assay: holdup assay). Conditions: plain residues with an end cap or a label only (N-terminal biotin on a linker: ado-ado).
Design: key: below the threshold = too weak to quantify, mostly under pKd 3.1 to 4
With B1 the pKd was “below the threshold”.
For B2, the pKd was “below the threshold”.
B3 was tested, and the pKd was “below the threshold”.

Each binder was assayed against MAGI1_2, Q96QZ7 (assay: holdup assay). Conditions: plain residues with an end cap or a label only (N-terminal biotin on a linker: ado-ado).
Sequence of MAGI1_2, Q96QZ7 (Q96QZ7 456-580): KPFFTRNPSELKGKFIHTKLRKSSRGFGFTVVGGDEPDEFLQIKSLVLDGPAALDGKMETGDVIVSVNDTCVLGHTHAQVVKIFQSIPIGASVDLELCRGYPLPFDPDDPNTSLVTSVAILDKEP
Design: key: below the threshold = too weak to quantify, mostly under pKd 3.1 to 4
For B1, the pKd was 4.6.
B2 was tested, and the pKd was “below the threshold”.
Work on B3 yielded a pKd of 4.04.

What follows are binders tested against PTPN3, P26045 (assay: holdup assay). Conditions: plain residues with an end cap or a label only (N-terminal biotin on a linker: ado-ado).
Sequence of PTPN3, P26045 (P26045 505-587): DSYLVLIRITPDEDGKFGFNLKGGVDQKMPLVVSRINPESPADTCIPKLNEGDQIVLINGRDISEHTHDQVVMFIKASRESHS
Design: key: below the threshold = too weak to quantify, mostly under pKd 3.1 to 4
Binder B1 has a pKd of 4.78.
Binder B2 has a pKd of 3.85.
Work on B3 yielded a pKd of 3.99.

What follows are binders tested against T7, DLG3_1, Q92796 (assay: holdup assay). Conditions: plain residues with an end cap or a label only (N-terminal biotin on a linker: ado-ado).
Design: key: below the threshold = too weak to quantify, mostly under pKd 3.1 to 4
B1 gave a pKd of 4.5.
For B2, the pKd was “below the threshold”.
For B3, the pKd was 3.81.

These binders were tested against NHERF4_1, Q86UT5-2 (assay: holdup assay). Conditions: plain residues with an end cap or a label only (N-terminal biotin on a linker: ado-ado).
Sequence of NHERF4_1, Q86UT5-2 (Q86UT5 other isoform, or with tags, fused parts or gaps): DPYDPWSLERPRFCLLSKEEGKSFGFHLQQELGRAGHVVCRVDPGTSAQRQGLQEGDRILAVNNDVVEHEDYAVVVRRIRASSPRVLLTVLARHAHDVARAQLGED
Design: key: below the threshold = too weak to quantify, mostly under pKd 3.1 to 4
In the case of B1, the pKd is reported as 3.76.
Binder B2 has a pKd of 4.34.
B3 was tested, and the pKd was “below the threshold”.

What follows are binders tested against T8, RHPN1, Q8TCX5 (assay: holdup assay). Conditions: plain residues with an end cap or a label only (N-terminal biotin on a linker: ado-ado).
Design: key: below the threshold = too weak to quantify, mostly under pKd 3.1 to 4
With B1 the pKd was 4.33.
B2 was tested, and the pKd was “below the threshold”.
B3 showed a pKd of 3.58.

The binders below were run against T9, SNTG1, Q9NSN8 (assay: holdup assay). Conditions: plain residues with an end cap or a label only (N-terminal biotin on a linker: ado-ado).
Design: key: below the threshold = too weak to quantify, mostly under pKd 3.1 to 4
B1 was tested, and the pKd was 4.85.
With B2 the pKd was “below the threshold”.
For B3, the pKd was 3.7.

These binders were tested against GORASP2, Q9H8Y8 (assay: holdup assay). Conditions: plain residues with an end cap or a label only (N-terminal biotin on a linker: ado-ado).
Design: key: below the threshold = too weak to quantify, mostly under pKd 3.1 to 4
For B1, the pKd was “below the threshold”.
In the case of B2, the pKd is reported as 3.87.
B3 was tested, and the pKd was 4.17.

These binders were tested against T10, MPDZ_5, O75970 (assay: holdup assay). Conditions: plain residues with an end cap or a label only (N-terminal biotin on a linker: ado-ado).
Design: key: below the threshold = too weak to quantify, mostly under pKd 3.1 to 4
For B1, the pKd was “below the threshold”.
With B2 the pKd was “below the threshold”.
With B3 the pKd was “below the threshold”.

Each binder was assayed against Inadl_10, Q8NI35 (assay: holdup assay). Conditions: plain residues with an end cap or a label only (N-terminal biotin on a linker: ado-ado).
Sequence of Inadl_10, Q8NI35 (Q8NI35 1673-1763): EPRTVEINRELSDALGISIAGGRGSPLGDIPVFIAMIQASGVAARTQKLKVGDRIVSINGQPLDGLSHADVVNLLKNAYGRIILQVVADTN
Design: key: below the threshold = too weak to quantify, mostly under pKd 3.1 to 4
B1 was tested, and the pKd was “below the threshold”.
With B2 the pKd was “below the threshold”.
With B3 the pKd was “below the threshold”.

These binders were tested against T11, NHERF3_3, Q5T2W1 (assay: holdup assay). Conditions: plain residues with an end cap or a label only (N-terminal biotin on a linker: ado-ado).
Design: key: below the threshold = too weak to quantify, mostly under pKd 3.1 to 4
With B1 the pKd was “below the threshold”.
In the case of B2, the pKd is reported as “below the threshold”.
With B3 the pKd was “below the threshold”.

What follows are binders tested against Inadl_9, Q8NI35 (assay: holdup assay). Conditions: plain residues with an end cap or a label only (N-terminal biotin on a linker: ado-ado).
Sequence of Inadl_9, Q8NI35 (Q8NI35 1530-1615): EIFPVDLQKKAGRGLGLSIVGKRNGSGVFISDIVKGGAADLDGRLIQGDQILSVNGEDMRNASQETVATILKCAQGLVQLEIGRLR
Design: key: below the threshold = too weak to quantify, mostly under pKd 3.1 to 4
B1 gave a pKd of 3.71.
B2 was tested, and the pKd was 4.34.
With B3 the pKd was “below the threshold”.

— article PMC9482650, “Quantitative fragmentomics allow affinity mapping of interactomes” (Nature Communications, 2022)
